In patent US20250262271A1 (ARIZONA BOARD OF REGENTS ON BEHALF OF THE UNIVERSITY OF …, published 2025):

Biological target: T1, Kog1-FLAG (Saccharomyces cerevisiae, UniProt P38873 1-1557)
T1 construct: Bait of the TORC1 immunopurifications; also called TORC1 subunit Kog1/Raptor with FLAG tag; TORC1 (as purified through Kog1-FLAG); not shown: FLAG tag
Experiment: co-immunopurification after DSP crosslinking, Western blot; long term amino acid and glucose starvation

T1 sequence (P38873 whole entry): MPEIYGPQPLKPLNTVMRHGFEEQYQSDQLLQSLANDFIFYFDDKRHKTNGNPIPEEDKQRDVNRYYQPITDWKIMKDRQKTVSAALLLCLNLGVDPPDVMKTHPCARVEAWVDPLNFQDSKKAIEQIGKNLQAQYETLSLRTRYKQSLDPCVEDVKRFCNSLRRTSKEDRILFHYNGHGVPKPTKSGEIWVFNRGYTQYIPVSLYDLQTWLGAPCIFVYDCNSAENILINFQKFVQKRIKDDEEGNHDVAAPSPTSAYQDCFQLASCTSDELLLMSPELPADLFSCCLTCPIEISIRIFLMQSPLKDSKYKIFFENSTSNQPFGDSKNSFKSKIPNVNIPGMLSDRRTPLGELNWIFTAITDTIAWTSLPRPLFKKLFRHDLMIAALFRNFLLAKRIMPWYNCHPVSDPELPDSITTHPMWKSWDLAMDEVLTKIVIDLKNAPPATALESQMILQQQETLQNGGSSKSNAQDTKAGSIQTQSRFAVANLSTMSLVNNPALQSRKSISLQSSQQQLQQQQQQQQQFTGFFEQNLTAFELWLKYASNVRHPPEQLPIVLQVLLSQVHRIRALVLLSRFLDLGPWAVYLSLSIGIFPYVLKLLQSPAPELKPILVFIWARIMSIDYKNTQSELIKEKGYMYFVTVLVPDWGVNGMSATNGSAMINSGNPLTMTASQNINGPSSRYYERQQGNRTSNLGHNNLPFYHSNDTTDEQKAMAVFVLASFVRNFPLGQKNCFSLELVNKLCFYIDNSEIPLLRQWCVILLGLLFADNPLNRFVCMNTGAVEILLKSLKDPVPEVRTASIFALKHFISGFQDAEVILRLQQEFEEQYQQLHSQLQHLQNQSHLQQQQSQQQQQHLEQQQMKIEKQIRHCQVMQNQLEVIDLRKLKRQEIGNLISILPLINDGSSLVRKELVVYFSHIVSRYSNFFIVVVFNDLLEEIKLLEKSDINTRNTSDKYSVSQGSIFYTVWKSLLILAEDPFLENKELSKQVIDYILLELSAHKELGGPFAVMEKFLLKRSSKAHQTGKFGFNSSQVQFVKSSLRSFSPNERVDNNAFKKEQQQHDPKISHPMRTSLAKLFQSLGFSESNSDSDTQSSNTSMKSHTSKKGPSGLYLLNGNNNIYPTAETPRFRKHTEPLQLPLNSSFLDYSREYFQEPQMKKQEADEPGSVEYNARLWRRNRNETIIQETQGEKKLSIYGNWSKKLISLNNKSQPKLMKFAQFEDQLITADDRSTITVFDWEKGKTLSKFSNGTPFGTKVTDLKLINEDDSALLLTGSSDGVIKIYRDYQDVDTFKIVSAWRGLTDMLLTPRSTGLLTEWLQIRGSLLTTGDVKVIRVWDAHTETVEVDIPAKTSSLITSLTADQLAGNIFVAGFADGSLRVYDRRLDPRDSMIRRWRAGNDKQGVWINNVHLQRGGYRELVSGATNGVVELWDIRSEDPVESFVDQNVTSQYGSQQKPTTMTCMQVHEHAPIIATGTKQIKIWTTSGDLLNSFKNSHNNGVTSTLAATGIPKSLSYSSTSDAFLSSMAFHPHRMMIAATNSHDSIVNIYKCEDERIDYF

B1: GFP-Ait1 (other)
chain: MVRLNHAASYFMPIFCSTRPHIVILSALFSISLFSLFYASSELLLHQYDDPLMFKPNSQDYFRTFLLGLFSPFLYYFLKTFLFNINQRFLILNLIVDFPINDVFMLLILIGLAYPQVQDHEGGTIKHKECSWHIIPRQAYIFGISWALGEFTICIIGNLFNYQEIADPNINSGFTHQESANTYCNNNDMSHNDDCGCSTEYRPNVVDRSDITLSKCIEVRNDSSSISNNVYSSEYHPIKPLRSSSSTYGSIRQQPHENKKQLHVPDNSQDDTIIMMNPIDNSLKLTTLDTGDLSFPIDEEQPILKKSFGYTWAVPNENTQNTTKSFTPIKRFIAFSTAYQLVTGLLLMILVVGSNIMLTIGESLILSMYFVYVRGHEGLFTPVVNYFGSRTISNFILCVIIPFISLNFLINTSIYLRRELDDWFNNSQGEFEDDDENTISKRVATNQEYQHPLSANYISMDSPDVINSSPGHFGMNSGQLLGNTTLYYGSLNGDDDDMTNDSALLRFCKKLVKNWRALARNDSFVLGVMVSWSLLVFVTGILSTVYI
notes: Expressed in S. cerevisiae (W303) and immunopurified from DSP-crosslinked, digitonin-treated lysate; also called Ait1-GFP; GFP-tagged Ydl180w; not shown: GFP tag
B1 was tested. Which “co-purified amount relative to log phase growth” value did it give?
Its value is 50%.
